Article PMC4073888

Molecular target: T1, 6xHis-NELF-E-mOrange (Drosophila, UniProt P92204 1-280)
T1 sequence: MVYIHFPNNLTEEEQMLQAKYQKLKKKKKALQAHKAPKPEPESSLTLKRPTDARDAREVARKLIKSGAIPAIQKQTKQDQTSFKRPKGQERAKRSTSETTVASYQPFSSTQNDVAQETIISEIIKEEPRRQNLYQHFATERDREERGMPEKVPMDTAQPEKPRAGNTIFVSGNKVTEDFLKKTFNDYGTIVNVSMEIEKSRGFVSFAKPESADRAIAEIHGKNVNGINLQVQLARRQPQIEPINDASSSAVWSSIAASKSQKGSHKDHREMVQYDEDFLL
Test: HiTS-RAP fluorescence

B1: NELFapt A39U_U61A (structured_RNA)
RNA: GGGAAUGGAUCCACAUCUACGAAUUCCCAACGACUGCCGAGCGAGAUUACGCUUGAGCGCCCCUCUGAGGAUGCCCACGGGCGAUAGGGGCACGGCUUCACUGCAGACUUGACGAAGCUU
  binding result: binds
